By Kd is commonly meant the equilibrium constant for the complex coming apart.

We go through 4 molecules from publication PMC6793842 (2019).

The labels stand for the following.
B1: gorilla basigin, entire ectodomain (receptor)
chain: ASGAAGTVLTTVEELGSKILLTCSLNDSATEVTGHRWLKGGVVLKEDALPGQKTEFEVDSDDQWGEYSCVFLPEPMGTANIQLHHGPPRVKAVKLSEHINEGETAVLACKSESVPPVTDWAWYKITDSGDKALTNGSESRFFVSSSQGRSELYIENLNMEADPGQYRCNGTSSKGSDQAVITLRVRSHLA
modifications: biotin (enzymatic monobiotinylation; site not stated)
B2: chimpanzee basigin, entire ectodomain (receptor)
chain: ASGAAGTVFTTVEDLGSKILLTCYMNDSATEVTGHRWLKGGVVLEEDALPGQKTEFKVDSDDQWGEYSCVFLPEPMGTANIQLHGPPRVKAVKSSEHINEGETAVLVCKSESVPPVTDWAWYKITDSGDKALMNGSESRFFVSSLQGRSELHIENLNMEADPGQYRCNGNSSEGSDQAVITLRVRSHLA
modifications: biotin (enzymatic monobiotinylation; site not stated)
B3: human basigin, entire ectodomain (receptor)
chain: EPGTVFTTVEDLGSKILLTCSLNDSATEVTGHRWLKGGVVLKEDALPGQKTEFKVDSDDQWGEYSCVFLPEPMGTANIQLHGPPRVKAVKSSEHINEGETAMLVCKSESVPPVTDWAWYKITDSEDKALMNGSESRFFVSSSQGRSELHIENLNMEADPGQYRCNGTSSKGSDQAIITLRVRSHLAAL
modifications: biotin (enzymatic monobiotinylation; site not stated)
B4: P. reichenowi RH5 (ligand)
chain: MIRIKKKIILSILYIHLFILNSLSFENAKKKTKNQENNLTLLPIKSSEEEKSNIKHKDIGNVNKDDINNDIDNDKKDVKISNVKDHSTYIKSYLNKNVNDGLKYLFMPSHNAYIKKYSLFNKMNNDMLLNEKKDVNNNKEDDKNINHKNVNFLQNDFKGLPKNNIADSIDIVQDKEGHLDFIIIPYYSHVEYCKHLSIISVFHRLSTYGEYKDVIAFVKNINEKYDKVKDKCNEIKNDLITTIKKLENPHDVNNKNEDSNIYNTFEDIDDIYEDDMQDQLEYVYDTIEDADSDNTHPNKKKYHLINRTYKKMMDEYNLKKNKLIQCIKNNEPDFNNIYMDIKNYSTNRFENISCDNINFCNTNGIKNHYIYYIEKEMLAIKSKDLNKDIKDMTSILQQSELLLINLNKKMGSYIYIDTIKFIHKEMKYIFKRIEHHTNIIIDKIKIIDDKYKISINKTFPKNILLPKILDLSNEYALFITSSTLRQMLYNTFYTKEKHLHNLFHHLIYVLQIKFNDVPVHMEYFPLYKKKKILTQ

Targets include P. adleri RH5 (P. adleri); P. praefalciparum RH5 (P. praefalciparum); P. billcollinsi RH5 (P. billcollinsi); P. gaboni RH5 (P. gaboni).
Common to all, as to assay: SPR
Experiment [1] addresses introgressed ancestral RH5 (reticulocyte-binding protein homologue 5) (calculated ancestor; parent sequence P. …, UniProt Q8IFM5 25-526, H200).
Experiment [2] addresses B2.

For the molecule B1, the figures for the equilibrium dissociation constant (Kd) (with P. adleri RH5; in the experiment with P. praefalciparum RH5; in experiment [1]) were 1000 nM, 2500 nM and 3000 nM, respectively.
In the case of B2, in the experiment with P. billcollinsi RH5, the Kd came out at 1800 nM.
On to B3, for which the values for the Kd with P. adleri RH5, in the experiment with P. praefalciparum RH5 and with P. gaboni RH5 were 3100 nM, 1900 nM and 3.6 µM, respectively.
Molecule B4 came in with a Kd in experiment [2] of 4.3 µM.
